The chains are these.
B3: tag-less CEACAM1 N-terminal domain, unglycosylated (domain or fragment, human)
chain: AQLTTESMPFNVAEGKEVLLLVHNLPQQLFGYSWYKGERVDGNRQIVGYAIGTQQATPGPANSGRETIYPNASLLIQNVTQNDTGFYTLQVIKSDLVNEEATGQFHVY
notes: CEACAM1, human, N-terminal IgV-like domain, tag-less; also called rCEACAM1-N; CC1-N; source: E. coli (pET21d), purified
B4: IgI3 domain of R28 protein, recombinant, as used in ITC (domain or fragment)
chain: KYSPEAKHRTVEQHAELDAKDSIANTDELPSNSTYNWKNGHKPDTSTSGEKDGIVEVHYPDGTVDDVNVKVTVTSKKTDNTAPTLTVTPEQQTVKVDEDITFTVTVEDENEVELGLDDLKAKYENDIIGARVKIKYLTKEPNKKVMEVTIMKATLADKGAITFTAKDKAGNQAEPKTVTINVLPLK
modifications: Construct limits not printed. 233-418 is the unannotated region between the AlphaC C-terminal domain (ends 232) and the first annotated Rib repeat (starts 419); it should enclose the IgI3 domain …

Experiment [1] concerns the target IgSF (IgI3) domain of β protein, recombinant, as used in ITC (Streptococcus agalactiae (GBS)). Briefly: ITC; iTC200, 25°C, 30 mM Tris-HCl, 150 mM NaCl, pH 7.5; typically 500 µM unglycosylated CEACAM-N domain in the syringe, 50 µM IgI3 domain; duplicates.
In experiment [2] the target is β-IgI3 D55A, as used in ITC (Streptococcus agalactiae (GBS)). The description is as above.
For experiment [3], the target named is β-IgI3 F42A, as used in ITC (Streptococcus agalactiae (GBS)). Described as above.
Experiment [4] has as its target β-IgI3 V53A, as used in ITC (Streptococcus agalactiae (GBS)). The experiment is described as above.
Experiment [5] concerns the target T1, tag-less unglycosylated CEACAM1 N-terminal domain (rCEACAM1-N, pET21d) (human, UniProt P13688 34-141).
T1 construct: N-terminal IgV-like domain of human CEACAM1; also called rCC1-N; CC1-N; source: E. coli, pET21d, purified as in Bonsor et al, 2015a
T1 sequence: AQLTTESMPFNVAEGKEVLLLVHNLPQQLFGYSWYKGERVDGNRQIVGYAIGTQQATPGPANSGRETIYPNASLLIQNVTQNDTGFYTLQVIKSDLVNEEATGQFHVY
Briefly: ITC; iTC200, 25 °C, 16 injections of 2.42 µL; typically 500 µM unglycosylated CEACAM-N in the syringe and 50 µM β-IgSF/β-IgI3; 30 mM Tris-HCl, 150 mM NaCl, pH 7.5; duplicates. Conditions: both partners purified.

Experiment [6] addresses B4. Briefly: ITC; iTC200, 25°C, 30 mM Tris-HCl, 150 mM NaCl, pH 7.5; typically 500 µM unglycosylated CEACAM-N domain in the syringe, 50 µM IgI3 domain; duplicates. Conditions: both partners purified. (In general: Isothermal titration calorimetry measures the heat released or taken up as one component is titrated into another.)
In experiment [7] the target is B3. The description is as above. The following applies: both partners purified.

The Kd is the free concentration of one partner at which half of the binding sites on the other are occupied at equilibrium, for simple one-to-one binding. In the case of “CEACAM5 N-terminal domain, unglycosylated (domain or fragment)”, in experiment [1], the Kd amounted to 0.152 µM. Consider “tag-less CEACAM1 N-terminal domain, unglycosylated (from UniProt P13688 34-141) (domain or fragment)”, for which the Kd came out at 0.096 µM in experiment [1], 0.69 µM in experiment [2], 0.016 µM in experiment [3] and 0.562 µM in experiment [4].

As to “tag-less CEACAM1-N L95A, unglycosylated (from UniProt P13688 34-141) (domain or fragment)”, the Kd in experiment [1] was 1.35 µM. Still for that read-out and setting: the figure for “tag-less CEACAM1-N N97A, unglycosylated (from UniProt P13688 34-141) (domain or fragment)” is 0.49 µM; for “tag-less CEACAM1-N Q44A, unglycosylated (from UniProt P13688 34-141) (domain or fragment)” it is 0.996 µM.

Consider “tag-less CEACAM1-N V96A, unglycosylated (from UniProt P13688 34-141) (domain or fragment)”, for which, in experiment [1], the Kd was 0.37 µM.

B1: β-IgI3 L45A (rβIgI3ΔL45A-His) (domain or fragment)
chain: ANENNQQKIELTVSPENITVYEGEDVKFTVTAKSDSKTTLDFSDALTKYNPSVSDRISTNYKTNTDNHKIAEITIKNLKLNESQTVTLKAKDDSGNVVEKTFTITVQKKEEKQ
notes: the substitution is still to be applied; its number counts on the domain's own 1-113; source: E. coli RG (Rosetta Gami), purified (Nickel column)
On to B1, for which binding in experiment [5] was characterised by a dissociation constant (Kd) of 0.234 µM.

B2: β-IgI3 S52A (rβIgI3ΔS52A-His) (domain or fragment)
chain: ANENNQQKIELTVSPENITVYEGEDVKFTVTAKSDSKTTLDFSDLLTKYNPAVSDRISTNYKTNTDNHKIAEITIKNLKLNESQTVTLKAKDDSGNVVEKTFTITVQKKEEKQ
notes: as for B1
Take B2: in experiment [5], the Kd was determined as 0.085 µM.

Turning to B3, the dH in experiment [6] was -20.1 ± 1.26 kJ/mol. For B4, in experiment [7], binding was put at a Kd of 1.05 ± 0.018 µM.

Source of the values: PMC8013792, “Bacterial protein domains with a novel Ig‐like fold target human CEACAM receptors” (The EMBO Journal, 2021).
